Target: Prostate specific antigen used in the inhibition kinetics (human) (UniProt P07288)
UniProt P07288, sequence (P07288 25-261): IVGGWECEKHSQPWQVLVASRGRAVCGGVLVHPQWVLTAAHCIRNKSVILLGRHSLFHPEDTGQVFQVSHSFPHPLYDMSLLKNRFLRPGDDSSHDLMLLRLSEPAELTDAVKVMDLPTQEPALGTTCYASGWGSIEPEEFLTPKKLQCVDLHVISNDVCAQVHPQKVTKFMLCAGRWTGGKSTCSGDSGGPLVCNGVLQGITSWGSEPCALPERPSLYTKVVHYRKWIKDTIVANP

| second-order rate constant for PSA inhibition (discontinuous assay of residual PSA activity on a chromogenic substrate, 350 nM PSA, 10-fold excess of PCI, 25°C, pH 7.4) | Molecule |
| --- | --- |
| 29 M^−1s^−1 | PNGase F-treated protein C inhibitor from human blood plasma lacking the six NH2-terminal amino acids (natural protein) |
| 4.1 M^−1s^−1 | Protein C inhibitor from human blood plasma lacking the six NH2-terminal amino acids (natural protein) |
| 5.8 M^−1s^−1 | Neuraminic acid free, NH2-terminally cleaved protein C inhibitor from human blood plasma (natural protein) |
| 4.3 M^−1s^−1 | Natural full-length protein C inhibitor from human blood plasma (natural protein, N-glycans at Asn-230, Asn-243 and Asn-319) EMKKRVEDLHVGATVAPSSRRDFTFDLYRALASAAPSQSIFFSPVSISMSLAMLSLGAGSSTKMQILEGLGLNLQKSSEKELHRGFQQLLQELNQPRDGFQLSLGNALFTDLVVDLQDTFVSAMKTLYLADTFPTNFRDSAGAMKQINDYVAKQTKGKIVDLLKNLDSNAVVIMVNYIFFKAKWETSFNHKGTQEQDFYVTSETVVRVPMMSREDQYHYLLDRNLSCRVVGVPYQGNATALFILPSEGKMQQVENGLSEKTLRKWLKMFKKRQLELYLPKFSIEGSYQLEKVLPSLGISNVFTSHADLSGISNHSNIQVSEMVHKAVVEVDESGTRAAAATGTIFTFRSARLNSQRLVFNRPFLMFIVDNNILFLGKVNRP |
| 5.2 M^−1s^−1 | Neuraminic acid free full-length protein C inhibitor from human blood plasma (natural protein, N-glycans at Asn-230, Asn-243 and Asn-319, sialic acids removed with neuraminidase) EMKKRVEDLHVGATVAPSSRRDFTFDLYRALASAAPSQSIFFSPVSISMSLAMLSLGAGSSTKMQILEGLGLNLQKSSEKELHRGFQQLLQELNQPRDGFQLSLGNALFTDLVVDLQDTFVSAMKTLYLADTFPTNFRDSAGAMKQINDYVAKQTKGKIVDLLKNLDSNAVVIMVNYIFFKAKWETSFNHKGTQEQDFYVTSETVVRVPMMSREDQYHYLLDRNLSCRVVGVPYQGNATALFILPSEGKMQQVENGLSEKTLRKWLKMFKKRQLELYLPKFSIEGSYQLEKVLPSLGISNVFTSHADLSGISNHSNIQVSEMVHKAVVEVDESGTRAAAATGTIFTFRSARLNSQRLVFNRPFLMFIVDNNILFLGKVNRP |
| 4.8 M^−1s^−1 | PNGase F-treated full-length protein C inhibitor from human blood plasma (natural protein, N-glycans removed with PNGase F) EMKKRVEDLHVGATVAPSSRRDFTFDLYRALASAAPSQSIFFSPVSISMSLAMLSLGAGSSTKMQILEGLGLNLQKSSEKELHRGFQQLLQELNQPRDGFQLSLGNALFTDLVVDLQDTFVSAMKTLYLADTFPTNFRDSAGAMKQINDYVAKQTKGKIVDLLKNLDSNAVVIMVNYIFFKAKWETSFNHKGTQEQDFYVTSETVVRVPMMSREDQYHYLLDRNLSCRVVGVPYQGNATALFILPSEGKMQQVENGLSEKTLRKWLKMFKKRQLELYLPKFSIEGSYQLEKVLPSLGISNVFTSHADLSGISNHSNIQVSEMVHKAVVEVDESGTRAAAATGTIFTFRSARLNSQRLVFNRPFLMFIVDNNILFLGKVNRP |
